# Source: patent US20090081195
# Test system: SLK (construct not stated)
# Sequence (chain, as listed by the source): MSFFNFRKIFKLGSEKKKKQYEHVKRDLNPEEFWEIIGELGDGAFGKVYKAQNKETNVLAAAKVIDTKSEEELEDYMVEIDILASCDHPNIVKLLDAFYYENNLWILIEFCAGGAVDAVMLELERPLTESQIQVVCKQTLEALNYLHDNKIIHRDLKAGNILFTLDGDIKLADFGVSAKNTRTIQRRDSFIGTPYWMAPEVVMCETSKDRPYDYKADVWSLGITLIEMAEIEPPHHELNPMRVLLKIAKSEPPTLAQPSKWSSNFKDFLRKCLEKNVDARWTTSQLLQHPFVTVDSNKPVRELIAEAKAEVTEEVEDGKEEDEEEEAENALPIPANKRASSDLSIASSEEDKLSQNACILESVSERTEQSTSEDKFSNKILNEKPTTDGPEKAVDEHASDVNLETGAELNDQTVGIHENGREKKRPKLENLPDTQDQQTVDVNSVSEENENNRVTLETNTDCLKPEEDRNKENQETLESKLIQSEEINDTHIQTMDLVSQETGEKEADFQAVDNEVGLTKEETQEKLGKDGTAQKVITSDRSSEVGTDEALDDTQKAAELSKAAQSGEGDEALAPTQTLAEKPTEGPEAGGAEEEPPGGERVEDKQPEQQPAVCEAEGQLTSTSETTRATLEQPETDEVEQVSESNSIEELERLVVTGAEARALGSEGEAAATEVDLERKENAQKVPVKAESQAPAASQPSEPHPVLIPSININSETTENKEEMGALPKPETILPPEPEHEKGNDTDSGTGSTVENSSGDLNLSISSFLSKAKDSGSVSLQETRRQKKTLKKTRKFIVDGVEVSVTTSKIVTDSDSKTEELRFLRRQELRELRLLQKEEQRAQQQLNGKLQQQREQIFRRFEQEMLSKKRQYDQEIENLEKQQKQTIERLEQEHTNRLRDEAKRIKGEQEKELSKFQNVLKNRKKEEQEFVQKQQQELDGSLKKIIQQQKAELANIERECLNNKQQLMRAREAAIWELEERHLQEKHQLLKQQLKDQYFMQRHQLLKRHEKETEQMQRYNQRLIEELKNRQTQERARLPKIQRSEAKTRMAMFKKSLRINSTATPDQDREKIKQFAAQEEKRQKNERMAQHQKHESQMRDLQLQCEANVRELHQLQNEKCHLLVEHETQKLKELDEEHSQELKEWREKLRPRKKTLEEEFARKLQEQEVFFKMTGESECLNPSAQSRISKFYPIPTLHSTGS
substance,measurement,value
nm23 (nucleoside diphosphate kinase; NDPK),"SLK activity in vitro (kinase assay, autophosphorylation)",nm23 is not a substrate for SLK but rather inhibits its activity in vitro through direct interaction
